These results are taken from PMC4405695 (2015).

The assay has as its target GST-Rab6A Q72L (UniProt P20340 1-208, Q72L). Kind of assay: GTPγS-loaded Rab6A.

Sequence of GST-Rab6A Q72L (P20340 whole entry Q72L): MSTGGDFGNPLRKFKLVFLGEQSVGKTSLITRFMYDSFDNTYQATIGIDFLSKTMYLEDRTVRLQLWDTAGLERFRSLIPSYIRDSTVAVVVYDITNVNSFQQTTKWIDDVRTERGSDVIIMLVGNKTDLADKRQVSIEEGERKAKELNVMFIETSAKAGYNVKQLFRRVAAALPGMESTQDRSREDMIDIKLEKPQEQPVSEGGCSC

B1: KIF1C-355-His (domain or fragment)
chain: MAGASVKVAVRVRPFNARETSQDAKCVVSMQGNTTSIINPKQSKDAPKSFTFDYSYWSHTSTEDPQFASQQQVYRDIGEEMLLHAFEGYNVCIFAYGQTGAGKSYTMMGRQEPGQQGIVPQLCEDLFSRVSENQSAQLSYSVEVSYMEIYCERVRDLLNPKSRGSLRVREHPILGPYVQDLSKLAVTSYADIADLMDCGNKARTVAATNMNETSSRSHAVFTIVFTQRCHDQLTGLDSEKVSKISLVDLAGSERADSSGARGMRLKEGANINKSLTTLGKVISALADMQSKKRKSDFIPYRDSVLTWLLKENLGGNSRTAMIAALSPADINYEETLSTLRYADRTKQIRNTVSVN
Turning to B1, binding was put at a Kd of 170 nM.

As usually defined, the Kd is the concentration at which binding is half-saturated. Low values mean a tighter complex, high ones a looser complex.
